According to patent US20190085314A1 (SAINT LOUIS UNIVERSITY, published 2019):

How the values were obtained:
[1] = biological target: AtUBC8 (Arabidopsis thaliana ubiquitin conjugating enzyme E2 8), 6xHIS-tagged (Arabidopsis thaliana) (UniProt P35131); experiment: interface area calculated for residues 74-82 of AtMUB3 within the co-crystal structure
[2] = biological target: AtUBC8 (Arabidopsis thaliana ubiquitin conjugating enzyme E2 8), 6xHIS-tagged (Arabidopsis thaliana) (UniProt P35131); experiment: Delta G calculated for residues 74-82 of AtMUB3 within the co-crystal structure; unit not given
[3] = biological target: T1, AtUBC8 (Arabidopsis thaliana ubiquitin conjugating enzyme E2 8), 6xHIS-tagged (Arabidopsis thaliana, UniProt P35131 1-148); experiment: Isothermal titration calorimetry (MicroCal iTC200), 110 uM AtMUB3 titrated into 8 uM AtUBC8, OneSites model; 25 mM HEPES pH 7.5, 200 mM NaCl, 1 mM TCEP
T1 construct: The crystal model holds residues 1-147/1-148; also called AtUBC08; not shown: 6xHIS tag
T1 sequence (P35131 whole entry, the tested form may be a part): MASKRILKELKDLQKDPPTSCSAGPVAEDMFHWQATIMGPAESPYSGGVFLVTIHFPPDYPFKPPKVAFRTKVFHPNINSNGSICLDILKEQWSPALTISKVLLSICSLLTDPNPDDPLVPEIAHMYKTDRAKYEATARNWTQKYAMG
Description: FIG. 13. […] Proteins were purified as described for crystallization and dialyzed extensively against a buffer containing 25 mM HEPES, pH 7.5, 200 mM NaCl, 1 mM TCEP. Data was processed with MicroCal Origin 7 software, and normalized against the dialysis buffer's heat of dilution.

[4] = biological target: T2, biotinylated E2 (Ube2D3), from the E1/E2 Lite kit (LifeSensors) (UniProt P61077 1-147, limits assumed, biotinylated (site not stated); labelled with streptavidin-terbium in the assay); experiment: HTRF-FRET E2 activation assay; initial velocity against HsMUB concentration, one-site binding fit; IC50 equal to Ki under limiting E2
T2 construct: Bought kit reagent; also called biotinylated Ube2D3
T2 sequence (P61077 whole entry): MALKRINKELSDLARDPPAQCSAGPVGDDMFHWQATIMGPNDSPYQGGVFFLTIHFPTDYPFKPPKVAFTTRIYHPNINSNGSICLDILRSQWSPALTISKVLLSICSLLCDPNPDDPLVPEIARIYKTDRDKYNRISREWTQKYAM

Chain of AtUBC8 (Arabidopsis thaliana ubiquitin conjugating enzyme E2 8), 6xHIS-tagged (Arabidopsis thaliana) (P35131 whole entry, the tested form may be a part): as the sequence (P35131 whole entry, the tested form may be a part) above

Work on “AtMUB3 (74-82) (from UniProt Q9SW27 74-82)” yielded a Surface area (Å^2) [1] of 288 Å^2 and a Delta G [2] of -5.

B1: AtMUB3 (Arabidopsis thaliana Membrane-anchored Ubiquitin-fold protein 3), 6xHIS-tagged (other, UniProt Q9SW27 1-118, looked up)
chain: MPEEESIDIKFRLYDGSDIGPFRYSAASTVDFLKQRVVSDWPKGKTVVPKGINEVKLISSGKILENNKTVGQCKTPFGDIAGGVIVMHVVVQPSLAKSKTEKKVDKAPKAVICTCTIL
notes: Expressed in E. coli, so not prenylated; An N-terminal 6xHIS AtMUB3 is also described; also called AtMUB3-His; not shown: C-terminal 6xHIS tag from pET28b
B1 showed a Ka [3] of 3.53e+06 M⁻¹, a Kd [3] of 283 nM and a ΔH [3] of -8.84 kcal/mol. The ΔS [3] was 0.331 cal/mol/deg.

B2: HsMUB (Homo sapiens Membrane-anchored Ubiquitin-fold protein), C-terminal 6xHIS (other)
chain: MSSNVPADMINLRLILVSGKTKEFLFSPNDSASDIAKHVYDNWPMDWEEEQVSSPNILRLIYQGRFLHGNVTLGALKLPFGKTTVMHLVARETLPEPNSQGQRNREKTGESNCCVIL
notes: The coding region was cloned with the stop codon removed; also called Ubl3; human MUB; not shown: C-terminal 6xHIS tag from pET28b
With B2 the Ki [4] was 220 nM.
